{
  "source": "patent US8993253",
  "proteins": {"B1": {"name": "papain (protein)", "chain": "IPEYVDWRQKGAVTPVKNQGSCGSCWAFSAVVTIEGIIKIRTGNLNEYSEQELLDCDRRSYGCNGGYPWSALQLVAQYGIHYRNTYPYEGVQRYCRSREKGPYAAKTDGVRQVQPYNEGALLYSIANQPVSVVLEAAGKDFQLYRGGIFVGPCGNKVDHAVAAVGYGPNYILIKNSWGTGWGENGYIRIKRGTGNSYGVCGLYTSSFYPVKN"}},
  "molecular_target": "T1, Chromogenic polypeptide Val-Arg-[pABA]-Gly",
  "T1 chain": "VRXG",
  "data": [
    {"protein": "B1", "values": [
      {"measurement": "colour change with DMAC after proteolysis (booklet assay)", "value": "after ten minutes DMAC changed from yellow to red"}
    ]}
  ]
}
